Reference: patent US20200140532A1 (Ablynx, published 2020)

Columns and labels:
[1] = target: T1, recombinant human Aggrecan G1-IGD-G2 (human, UniProt P16112 20-676); experiment: periplasmic extract ELISA
T1 construct: Only the G1-IGD-G2 region was used (R&D Systems 1220-PG is named for the immunogen); also called Hu G1-IGD-G2

[2] = target: T2, recombinant rat Aggrecan G1-IGD-G2 (rat, UniProt P07897 20-684, limits assumed); experiment: periplasmic extract ELISA
T2 construct: also called Rat G1-IGD-G2

[3] = target: T3, recombinant dog Aggrecan G1-IGD-G2 (dog, UniProt Q28343 20-693, limits assumed); experiment: periplasmic extract ELISA
T3 construct: also called Dog G1-IGD-G2

[4] = target: T4, recombinant bovine Aggrecan G1-IGD-G2 (bovine, UniProt P13608 20-684, limits assumed); experiment: periplasmic extract ELISA
T4 construct: also called Bov G1-IGD-G2; Boy G1-IGD-G2

[5] = target: T1, recombinant human Aggrecan G1-IGD-G2; experiment: ELISA on recombinant G1-IGD-G2
[6] = target: T2, recombinant rat Aggrecan G1-IGD-G2; experiment: ELISA on recombinant G1-IGD-G2
[7] = target: T3, recombinant dog Aggrecan G1-IGD-G2; experiment: ELISA on recombinant G1-IGD-G2
[8] = target: T4, recombinant bovine Aggrecan G1-IGD-G2; experiment: ELISA on recombinant G1-IGD-G2

B1: C0101PMP601E08 (VHH)
VHH: DVQLVESGGGLVQPGGSLRLSCTASGRTFSSYAVGWFRQAPGKEREFVAAISRSGRSTYYADSVKGRFTISRDNSKNTVYLQMNSLRPEDTAVYYCAAGLSYYSPHAYYDYWGQGTLVTVSS
notes: Tested as E. coli periplasmic extract; not shown: FLAG3 and His6 tags (phagemid pAX212)
- OD 450 nm [1]: 2.28 OD 450 nm
- OD 450 nm [2]: 2.49 OD 450 nm
- OD 450 nm [3]: 0.57 OD 450 nm
- OD 450 nm [4]: 1.68 OD 450 nm

B2: C0101PMP112A01 (VHH)
VHH: EVQLVESGGGLVQTGGSLRLSCVASGRAFSNYIMGWFRQAPGKERDFVAAINWNGVTTHYTDSVKGRFTISRDNAKSTSYLQMDSLKPDDTAVYFCAARGTVYSRTYGVSEEGYMYWGQGTQVTVSS
notes: as for B1
- OD 450 nm [1]: 2.5 OD 450 nm
- OD 450 nm [2]: 2.03 OD 450 nm
- OD 450 nm [3]: 1.57 OD 450 nm
- OD 450 nm [4]: 2.41 OD 450 nm

B3: C0101PMP117G09 (VHH)
VHH: EVQLVESGGGSALPGGSLRLSCAASGITFSSRYMRWYRQAPGRQRELVAAISSGGRTDYVDSVRGRFTLSINNAKNTVYLQMNDLKPEDTAVYYCYRPRMYVDGTYEKELWGQGTLVTVSS
notes: as for B1
- OD 450 nm [1]: 2.21 OD 450 nm
- OD 450 nm [2]: 2.29 OD 450 nm
- OD 450 nm [3]: 1.68 OD 450 nm
- OD 450 nm [4]: 0.76 OD 450 nm

B4: C0101PMP604G09 (VHH)
VHH: DVQLVESGGGLVQPGGSLRLSCVASGRTFSSYAMGWFRQAPGKEREFVAAITWSSATTYYADSVKGRFTISRDNSKNTVYLQMNSLRPEDTAVYYCAAARIPVGRRSENWDYWGQGTLVTVSS
notes: as for B1
- OD 450 nm [1]: 2.41 OD 450 nm
- OD 450 nm [2]: 1.4 OD 450 nm
- OD 450 nm [3]: 1.16 OD 450 nm
- OD 450 nm [4]: 1.21 OD 450 nm

B5: C01010109 (ALB26-608A05-608A05) (VHH, not shown: small tags and cut ends)
VHH 1: DVQLVESGGGLVQPGGSLRLSCAASGRTFSTYTMGWFRQAPGKEREFVAAISWSGGTTYYADSVKGRFTISRDNSKNTVYLQMNSLRPEDTAVYYCAARPRYYYYSLYSYDYWGQGTLVTVSS
VHH 2: DVQLVESGGGLVQPGGSLRLSCAASGRTFSTYTMGWFRQAPGKEREFVAAISWSGGTTYYADSVKGRFTISRDNSKNTVYLQMNSLRPEDTAVYYCAARPRYYYYSLYSYDYWGQGTLVTVSS
- EC50 [5]: 0.1 nM
- EC50 [6]: 0.095 nM
- EC50 [7]: 0.33 nM
- EC50 [8]: 0.077 nM

B6: C0101PMP608A05 (VHH)
VHH: DVQLVESGGGLVQPGGSLRLSCAASGRTFSTYTMGWFRQAPGKEREFVAAISWSGGTTYYADSVKGRFTISRDNSKNTVYLQMNSLRPEDTAVYYCAARPRYYYYSLYSYDYWGQGTLVTVSS
notes: as for B1
- OD 450 nm [1]: 2.33 OD 450 nm
- OD 450 nm [2]: 2.39 OD 450 nm
- OD 450 nm [3]: 0.86 OD 450 nm
- OD 450 nm [4]: 2.27 OD 450 nm

B7: C0101PMP604G01 (VHH)
VHH: DVQLVESGGGLVQPGGSLRLSCAASGRTFSSYTMGWFRQAPGKEREFVAAISWSGRTTYYADSVKGRFTISRDNSKNTVYLQMNSLRPEDTAVYYCAAYRRVRYTNLEVWDYWGQGTLVTVSS
notes: as for B1
- OD 450 nm [1]: 2.27 OD 450 nm
- OD 450 nm [2]: 0.6 OD 450 nm
- OD 450 nm [3]: 1.55 OD 450 nm
- OD 450 nm [4]: 0.68 OD 450 nm

B8: C0101PMP604B05 (VHH)
VHH: DVQLVESGGGLVQPGGSLRLSCVASGRTFSIYTMAWFRQAPGKEREFVAAISWSSGRTYYADSVKGRFTISRDNSKNTVYLQMNSLRPEDTAVYYCTAYTGPRSGYDYWGQGTLVTVSS
notes: as for B1
- OD 450 nm [1]: 2.48 OD 450 nm
- OD 450 nm [2]: 1.98 OD 450 nm
- OD 450 nm [3]: 1.27 OD 450 nm
- OD 450 nm [4]: 1.63 OD 450 nm

B9: C0101PMP601D02 (VHH)
VHH: DVQLVESGGGLVQPGGSLRLSCAASGPTFSRYAMGWFRQAPGKEREFVAAITWSSGGRTYYADSVKGRFTISRDNSKNTVYLQMNSLRPEDTAVYYCAAARIPVRTYTSEWNYWGQGTLVTVSS
notes: as for B1
- OD 450 nm [1]: 2.58 OD 450 nm
- OD 450 nm [2]: 2.59 OD 450 nm
- OD 450 nm [3]: 2.58 OD 450 nm

B10: C01010118 (ALB26-114F08-114F08) (VHH, not shown: small tags and cut ends)
VHH 1: EVQLVESGGGLVQAGGSLRLSCAASGSTFIINVVRWYRRTPGKQRELVATISSGGNANYVDSVRGRFSISRDGAKNAVDLQMNGLKPEDTAVYYCNVPTTHYGGVYYGPYWGQGTQVTVSS
VHH 2: EVQLVESGGGLVQAGGSLRLSCAASGSTFIINVVRWYRRTPGKQRELVATISSGGNANYVDSVRGRFSISRDGAKNAVDLQMNGLKPEDTAVYYCNVPTTHYGGVYYGPYWGQGTQVTVSS
notes: also called C010100118
- EC50 [5]: 0.11 nM
- EC50 [6]: 0.19 nM
- EC50 [7]: 0.24 nM
- EC50 [8]: 0.37 nM

B11: C0101PMP114F08 (VHH)
VHH: EVQLVESGGGLVQAGGSLRLSCAASGSTFIINVVRWYRRTPGKQRELVATISSGGNANYVDSVRGRFSISRDGAKNAVDLQMNGLKPEDTAVYYCNVPTTHYGGVYYGPYWGQGTQVTVSS
notes: as for B1
- OD 450 nm [1]: 2.38 OD 450 nm
- OD 450 nm [2]: 2.05 OD 450 nm
- OD 450 nm [3]: 1.9 OD 450 nm
- OD 450 nm [4]: 1.18 OD 450 nm

B12: C0101PMP609C09 (VHH)
VHH: DVQLVESGGGLVQPGGSLRLSCAASGTIFSINVMGWYRQAPGKEREFVAAITTGGRTNYADSVKGRFTISRDNSKNTVYLQMNSLRPEDTAVYYCNAEVTTGWVGYSWYDYWGQGTMVTVSS
notes: as for B1
- OD 450 nm [1]: 2.1 OD 450 nm
- OD 450 nm [2]: 0.97 OD 450 nm
- OD 450 nm [3]: 1.52 OD 450 nm
- OD 450 nm [4]: 1.08 OD 450 nm

B13: C0101PMP117D05 (VHH)
VHH: KVQLVESGGGLVQAGGSLRLSCAASRRTFNMMGWFRQAPGKEREFVAYITWNGGDTRYAESVKGRFTVSRDDVKNTMALQMNRLDPLDTAVYYCGVRIHGSNWSTKADDYDNWGQGTQVTVSS
notes: as for B1
- OD 450 nm [1]: 2.25 OD 450 nm
- OD 450 nm [2]: 2.35 OD 450 nm
- OD 450 nm [3]: 1.53 OD 450 nm
- OD 450 nm [4]: 1.92 OD 450 nm

B14: C0101PMP606A07 (VHH)
VHH: DVQLVESGGGLVQPGGSLRLSCVASGRTFSIYGMGWFRQAPGKEREFVAAINGGSRTYYADSVKGRFTISRDNSKNTVYLQMNSLRPEDTAVYYCAADRSGYGTSLDWWYDYWGQGTLVTVSS
notes: as for B1
- OD 450 nm [1]: 0.71 OD 450 nm
- OD 450 nm [2]: 2.31 OD 450 nm
- OD 450 nm [3]: 1.47 OD 450 nm

B15: C0101PMP115B08 (VHH)
VHH: KVQLVESGGGLVQPGGSLRLSCAASGFTFSMYAMKWVRQAPGKGLEWVSGINSSGGRTNYAGSVKGRFTISRDNAKNTLYLQMNSLKPEDTAVYYCATDFLGGRNSRGQGTQVTVSS
notes: as for B1
- OD 450 nm [1]: 1.65 OD 450 nm
- OD 450 nm [2]: 1.85 OD 450 nm
- OD 450 nm [3]: 1.8 OD 450 nm
- OD 450 nm [4]: 0.84 OD 450 nm

B16: C01010106 (ALB26-604F02-604F02) (VHH, not shown: large carriers; small tags and cut ends)
VHH 1: DVQLVESGGGLVQPGGSLRLSCAASGRTFSSYTMGWFRQAPGKEREFVAAISWSGGRTYYADSVKGRFTISRDNSKNTVYLQMNSLRPEDTAVYYCAAYRRRRASSNRGLWDYWGQGTLVTVSS
VHH 2: DVQLVESGGGLVQPGGSLRLSCAASGRTFSSYTMGWFRQAPGKEREFVAAISWSGGRTYYADSVKGRFTISRDNSKNTVYLQMNSLRPEDTAVYYCAAYRRRRASSNRGLWDYWGQGTLVTVSS
- EC50 [5]: 0.066 nM
- EC50 [6]: 0.1 nM
- EC50 [7]: 0.097 nM

B17: C0101PMP604F02 (VHH)
VHH: DVQLVESGGGLVQPGGSLRLSCAASGRTFSSYTMGWFRQAPGKEREFVAAISWSGGRTYYADSVKGRFTISRDNSKNTVYLQMNSLRPEDTAVYYCAAYRRRRASSNRGLWDYWGQGTLVTVSS
notes: as for B1
- OD 450 nm [1]: 2.41 OD 450 nm
- OD 450 nm [2]: 0.78 OD 450 nm
- OD 450 nm [3]: 1.04 OD 450 nm
- OD 450 nm [4]: 0.82 OD 450 nm

B18: C0101PMP601E09 (VHH)
VHH: DVQLVESGGGLVQPGGSLRLSCAASGLTFSTYAMGWFRQAPGKEREFVAAISWSGSRTYYADSVKGRFTISRDNSKNTVYLQMNSLRPEDTAVYYCAAYRRPRYSPTGTWDYWGQGTLVTVSS
notes: as for B1
- OD 450 nm [2]: 2.61 OD 450 nm
- OD 450 nm [3]: 2.57 OD 450 nm

B19: C0101PMP113A01 (VHH)
VHH: EVQLVESGGGLVQPGGSLRLSCSASGFTFSGSWMFWVRQAPGKDYEWVASINSSGGRTYYDDSVKGRFTISRDSAKNTLYLEMNNLKPEDTALYFCARSPRVGSWGQGTQVTVSS
notes: as for B1
- OD 450 nm [1]: 2.56 OD 450 nm
- OD 450 nm [2]: 2.53 OD 450 nm
- OD 450 nm [3]: 2.51 OD 450 nm
- OD 450 nm [4]: 2.54 OD 450 nm

B20: C0101PMP112A03 (VHH)
VHH: EVQLVESGGGLVQPGGSLRLSCAASGSIFSNRFMYWYRQAPGKQRELVASITLSGSTNYADSVKGRFTISRDNAKNTVYLQMNSLKPEDTAVYYCNTFLQNSFYWGQGTQVTVSS
notes: as for B1
- OD 450 nm [1]: 2.51 OD 450 nm
- OD 450 nm [2]: 1.69 OD 450 nm
- OD 450 nm [3]: 1.47 OD 450 nm
- OD 450 nm [4]: 0.73 OD 450 nm
